Reference: patent US20220105157A1, “Compositions and Methods for Promoting Angiogenesis in the Eye” (The Regents of the University of California, priority 2019, published 2022)

B1: PRDX-1: recombinant human Peroxiredoxin 1 (protein, UniProt Q06830 2-199, looked up)
Peroxiredoxin-1: SSGNAKIGHPAPNFKATAVMPDGQFKDISLSDYKGKYVVFFFYPLDFTFVCPTEIIAFSDRAEEFKKLNCQVIGASVDSHFCHLAWVNTPKKQGGLGPMNIPLVSDPKRTIAQDYGVLKADEGISFRGLFIIDDKGILRQITVNDLPVGRSVDETLRLVQAFQFTDKHGEVCPAGWKPGSDTIKPDVQKSKEYFSKQK
B2: CT-1: cardiotrophin-1, IL-6 family member (protein, UniProt Q16619 1-201, looked up)
Cardiotrophin-1: MSRREGSLEDPQTDSSVSLLPHLEAKIRQTHSLAHLLTKYAEQLLQEYVQLQGDPFGLPSFSPPRLPVAGLSAPAPSHAGLPVHERLRLDAAALAALPPLLDAVCRRQAELNPRAPRLLRRLEDAARQARALGAAVEALLAALGAANRGPRAEPPAATASAASATGVFPAKVLGLRVCGLYREWLSRTEGDLGQLLPGGSA
B3: OSM: oncostatin M, IL-6 family member (protein, UniProt P13725 26-221, looked up)
Oncostatin-M: AAIGSCSKEYRVLLGQLQKQTDLMQDTSRLLDPYIRIQGLDVPKLREHCRERPGAFPSEETLRGLGRRGFLQTLNATLGCVLHRLADLEQRLPKAQDLERSGLNIEDLEKLQMARPNILGLRNNIYCMAQLLDNSDTAEPTKAGRGASQPPTPTPASDAFQRKLEGCRFLHGYHRFMHSVGRVFSKWGESPNRSRR

What was measured:
[1] = test system: bovine choroidal endothelial (BCE) cells; assay: BCE endothelial cell proliferation assay (alamar blue); type: cell-based; set-up: key to BCE cell growth normalized to the vehicle control group: ns, not statistically significant; details: for BCE cell growth normalized to the vehicle control group: day 6, n = 3
Description: The bovine endothelial proliferation assays were performed essentially as previously described (63, 64). BCE (1×10^3 cells/well) or BRE (5×10^2 cells/well) cells were seeded in 96-well plates in the culture medium (DMEM-low glucose supplemented with 10% BCS, 2 mM glutamine and antibiotics) plus testing materials with a total volume of 200 μl per well. BAE cells were plated in 96-well plates at a density of 2×10^3 cells in the culture medium (DMEM-low glucose supplemented with 1% BCS and antibiotics) plus testing material with a total volume of 200 μl per well. HRME cells were seeded at a density of 1×10^3 cells/well in gelatin-coated 96-well plates in assay medium (DMEM-low glucose supplemented with 20% FBS and antibiotics) plus testing materials to make a total volume 200 μl per well. For assays involving antibodies or small-molecule inhibitors, inhibitors or vehicle controls were first added and then test materials were added one hour later. After 6 days (unless otherwise specified), cells were incubated with alamar blue for 4 h. Fluorescence was measured at 530 nm excitation wavelength and 590 nm emission wavelength. Each experiment was carried out in duplicate/triplicate and repeated at least three times.

[2] = test system: choroid capillaries of NaIO3-treated mice; assay: Sodium iodate (NaIO3) model, choroid capillary recovery; type: in vivo, mouse; details: NaIO3 20 mg/kg i.v.; intravitreal LIF 50 ng, CT-1 different doses, OSM 10 ng; OCT-A
Description: Eight-week-old C57BL/6J mice were anesthetized with ketamine/xylazine cocktail. Sterilized NaIO3 was administered as a single intravenous injection (20 mg/kg body weight) (28) (29). Control mice were injected with PBS. PBS, LIF (50 ng), CT-1 (different doses) or OSM (10 ng) was injected intravitreally in five-mice groups. Five, seven and nine days after injection, choroid capillaries were monitored by OCT-A system. 9 days after injection, mice were killed and eyes were harvested for H&E and immunofluorescent staining. Avascular area in choroid capillaries was analyzed using ImageJ.

[3] = test system: retinal vasculature of mouse eyes; assay: Intravitreal injection of recombinant proteins in mouse eyes, retinal vessel density; type: in vivo; details: mice, intravitreal
Description: Male C57BL/6J mice (6-8 week and P5) were anesthetized with ketamine/Xylazine cocktail. The indicated amounts of recombinant LIF (Sigma, CAT #SRP9001) in 1 μl of PBS and PBS vehicle control were injected intravitreally with a 33-gauge Hamilton syringe. Seven (for adult mice) or 3 (for neonatal mice) days after injection, animals were euthanized, eyes were then enucleated and fixed in 4% paraformaldehyde (PFA) for 15 min. Choroid-sclera complexes and retinas were separated and anti-CD31 immunofluorescence (IF) or lectin labeling was performed to evidence the vasculature by whole mount staining of both retina and choroidal tissues or flat-mounts of retina. For CD31 IF, rat anti-mouse antibody (BD Biosciences, CAT #550274) was diluted 1:100 and incubated overnight at 4° C. After 4-hour incubation with the Alexa Fluor-488-conjugated anti-rat antibody (Life Technologies, CAT #A11006), whole mounts were imaged via the 488 nm channel using Keyence Microscope BZ-X710 (Keyence Corporation, Osaka, Japan) or A1R Confocal STORM super-resolution system (Nikon). For lectin staining, Dylight-488-labeled lectin (Vector Laboratories, CAT #DL-1174) was diluted at 1:200 and images were obtained using A1R Confocal STORM super-resolution system (Nikon). For Quantification of vascular density in choroids and retina was carried out by Image J. Student's t test was used for statistical analysis. […]
Optical coherence tomography angiography (OCTA) imaging of the retina of adult mice was performed 7 days after LIF injection, using a 1300 nm optical coherence tomography (OCT) system developed by Dr. R. K. Wang's group at University of Washington Seattle, in agreement with previously described methodology (66). […] To quantify the retinal vascular density, retinal and choroidal layers in 3D structure OCT scans were separated by the hyper-reflecting retinal pigment epithelium (RPE). […] The vessel density was then determined by calculating the percentages of vessel-covered area in total area of view using the ImageJ software.

Row | Molecule | stimulation of BCE cell growth (mitogenic activity) [1] | BCE cell growth normalized to the vehicle control group ([1]; 3 ng/ml) | BCE cell growth normalized to the vehicle control group ([1]; 10 ng/ml) | BCE cell growth normalized to the vehicle control group ([1]; 30 ng/ml) | BCE cell growth normalized to the vehicle control group ([1]; 100 ng/ml) | BCE cell growth normalized to the vehicle control group ([1]; 300 ng/ml) | BCE cell growth normalized to the vehicle control group ([1]; 1000 ng/ml) | avascular areas in choroid compared to PBS group [2] | increase in retinal density ([3]; 20 ng) | increase in retinal density ([3]; 100 ng) | vascular density in the retina [3]
1 | B1 | had no effect | ns | ns | ns | ns | ns | ns | – | – | – | –
2 | B2 | – | – | – | – | – | – | – | reduced avascular areas | approximately 30% | ~50% | –
3 | B3 | – | – | – | – | – | – | – | larger than in the PBS group | – | – | vascular density decreased
